Source: paper PMC5161705

Key:
[1] = biological target: biotin-labeled MBP (E. coli) [MBP: P0AEX9]; assay: BLI
[2] = biological target: MBP^V8G/Y283D (E. coli) [MBP: P0AEX9]; assay: ITC

Chain of SecB (P0AG86 whole entry): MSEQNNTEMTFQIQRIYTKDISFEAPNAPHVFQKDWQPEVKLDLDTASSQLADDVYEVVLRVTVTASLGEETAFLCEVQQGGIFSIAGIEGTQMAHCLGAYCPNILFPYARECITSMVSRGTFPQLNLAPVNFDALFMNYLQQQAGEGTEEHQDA
Chain of Trigger Factor (TF) (P0A850 whole entry): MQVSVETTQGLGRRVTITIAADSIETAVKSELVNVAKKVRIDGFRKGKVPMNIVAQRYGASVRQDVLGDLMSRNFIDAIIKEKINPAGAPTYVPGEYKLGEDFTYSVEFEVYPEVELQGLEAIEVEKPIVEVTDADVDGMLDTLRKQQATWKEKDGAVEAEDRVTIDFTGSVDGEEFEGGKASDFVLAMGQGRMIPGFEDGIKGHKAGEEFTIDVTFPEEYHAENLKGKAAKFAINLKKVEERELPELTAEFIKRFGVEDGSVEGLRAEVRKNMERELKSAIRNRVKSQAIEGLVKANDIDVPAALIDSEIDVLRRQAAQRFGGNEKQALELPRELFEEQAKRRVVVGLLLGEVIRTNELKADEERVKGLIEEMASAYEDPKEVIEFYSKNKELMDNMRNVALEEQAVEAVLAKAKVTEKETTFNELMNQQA

Trigger Factor (TF) (from UniProt P0A850 1-432) (natural protein)
koff [1]: 0.05 s⁻¹

SecB (from UniProt P0AG86 1-155) (natural protein)
koff [1]: 0.01 s⁻¹
Kd [2]: 50 mM
